Patent EP1241259A1 (UNIVERSITE LIBRE DE BRUXELLES, dated 2002)

Target: ORL1 (Opioid Receptor-Like 1) receptor stably expressed on recombinant CHO(ORL1^+) cells (UniProt P41146 1-370, limits assumed)
Assay: cell-based or functional assay

ORL1 (Opioid Receptor-Like 1) receptor stably expressed on recombinant CHO(ORL1^+) cells, sequence (P41146 whole entry): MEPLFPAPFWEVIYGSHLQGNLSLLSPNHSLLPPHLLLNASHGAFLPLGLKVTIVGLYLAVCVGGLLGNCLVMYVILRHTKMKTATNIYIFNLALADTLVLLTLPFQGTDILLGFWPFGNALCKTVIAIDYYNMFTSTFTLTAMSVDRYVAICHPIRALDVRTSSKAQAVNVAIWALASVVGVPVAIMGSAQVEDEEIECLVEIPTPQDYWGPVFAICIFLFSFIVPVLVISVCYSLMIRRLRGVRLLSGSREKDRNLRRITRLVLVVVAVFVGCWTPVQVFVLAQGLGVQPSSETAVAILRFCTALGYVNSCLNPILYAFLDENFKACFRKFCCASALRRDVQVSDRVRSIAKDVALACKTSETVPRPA

YGGFTGARKSARKLANQ [^1Tyr analogue of the synthetic heptadecapeptide]
inhibition of forskolin-induced accumulation of cAMP in CHO cells expressing the receptor, IC50: 1 nM
